The series has as its target HIV-1 reverse transcriptase, wild type (HIV-1, UniProt P04585;P04585 588-1147;588-1027). The experiment in a line: SPR; SPR: 10 mM HEPES pH 7.5, 150 mM NaCl, 80 mM KCl, 5 mM MgCl2, 25 C, RT on NTA chip; NMR: 10 mM Tris-d11 pD 7.6, 200 mM KCl, 1.5 mM sodium azide, 4 mM MgCl2; inhibition assay 25 C, 30 min. To be noted: protein: recombinant; (NTA chip capture); copies: 1;1.
Take CACACTAAGGGAGTAGGAATCCGCGGTCACAATGTTCCTG (ssDNA) [KY22]: the dissociation constant Kd was 1040 nM.
Take AGTAAGACTATAATTCAGTCCTCATTGATTTCCCACATCG (ssDNA) [KY1]: the equilibrium dissociation constant (Kd) stood at 2170 nM.
Regarding CTATAGGGGGTTGCATCTTAGACATTAATGTTCATTTACA (ssDNA) [KY23], the equilibrium dissociation constant (Kd) worked out at 55.2 nM.
GTGCAAGCGTACGAAGGGATAATTCACTCTAGGAGCTTCT (ssDNA) [KY44]: the Kd amounted to 2150 nM.
Regarding CCAGAAAGCTCGGGTTCGTTCCACAAATAACACTTGCCC (ssDNA) [KY28], the Kd came out at 1020 nM.

The term Kd denotes the concentration at which binding is half-saturated.

These data come from publication PMC8746315, “Biophysical Characterization of Novel DNA Aptamers against K103N/Y181C Double Mutant HIV-1 Reverse Transcriptase”.
